Assay results: US7994281 (EUROPEAN MOLECULAR BIOLOGY LABORATORY, dated 2011)
Blank lines part the entries; values can stand above or below the binder they belong to.

Key:
[1] = target: T1, DR4 (TRAIL-R1) Fc, recombinant receptor from R&D Systems (UniProt O00220 24-239, limits assumed); test: SPR, Biacore 3000, 25 C, receptor amine-coupled to CM5 chip, ligand 2 ug/ml
T1 construct: also called soluble TRAIL-R1 Fc; not shown: Fc part of the bought Fc fusion
Method: (§1) Binding experiments were performed using a surface plasmon resonance-based biosensor Biacore 3000 (Biacore AB, Uppsala, Sweden), at 25° C. Recombinant receptors were ordered from R&D systems (R&D systems, Minneapolis, Minn., USA). Immobilization of the receptors on the sensor surface of a Biacore CM5 sensor chip was performed following a standard amine coupling procedure according to the manufacturer's instructions. A reference surface was generated simultaneously under the same conditions but without receptor injection and used as a blank to correct for instrument and buffer artifacts. […] Binding of ligands to the receptors was monitored in real-time. The receptor/sensor surface was regenerated using 3 M sodium acetate pH 5.2 injections.

[2] = target: T1, DR4 (TRAIL-R1) Fc, recombinant receptor …; test: SPR (Biacore): clarified E. coli extract diluted 1:50 injected over immobilised DR4, DR5, DcR1 and RANK; bars are the response as a fraction of the DR5 response
Method: (§2) Control extracts of BL21 (DE3) culture without an over-expression plasmid and of a BL21 (DE3) culture with plasmid over-expressing SH3 domain were also injected.

[3] = target: T2, DR5 (TRAIL-R2) Fc, recombinant receptor from R&D Systems (UniProt O14763 54-182, limits assumed); test: SPR, Biacore 3000, 37 C, receptor Fc on CM5 chip, ligand 0.1-250 nM
T2 construct: also called soluble TRAIL-R2 Fc; immobilized TRAIL-R2 Fc; not shown: Fc part of the bought Fc fusion
T2 sequence (O14763 54-182 limits assumed): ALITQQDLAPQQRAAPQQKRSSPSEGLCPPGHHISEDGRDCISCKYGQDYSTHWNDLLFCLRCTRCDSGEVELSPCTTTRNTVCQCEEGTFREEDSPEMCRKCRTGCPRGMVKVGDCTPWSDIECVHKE
Method: (§3) Binding experiments were performed using a surface plasmon resonance-based biosensor Biacore 3000 (Biacore AB, Uppsala, Sweden), at 37° C. Recombinant receptors were ordered from R&D systems (R&D systems, Minneapolis, Minn., USA). […] Receptors were coated at a level of ~600-800 RU. […] Between injections the receptor/sensor surface was regenerated using 30 µl of 3 M sodium acetate pH 5.2.

[4] = target: T1, DR4 (TRAIL-R1) Fc, recombinant receptor …; test: as above
Method: as §3

[5] = target: T1, DR4 (TRAIL-R1) Fc, recombinant receptor …; test: SPR (Biacore 3000, 37 C): purified ligand at 60 nM over immobilised receptor Fc
murine RANK (receptor) = target: T3, murine RANK (receptor) (murine, UniProt O35305 31-214, limits assumed); test: SPR (Biacore): clarified E. coli extract diluted 1:50 injected over immobilised DR4, DR5, DcR1 and RANK; bars are the response as a fraction of the DR4 response
T3 construct: Control surface in the SPR screening
T3 sequence (looked up): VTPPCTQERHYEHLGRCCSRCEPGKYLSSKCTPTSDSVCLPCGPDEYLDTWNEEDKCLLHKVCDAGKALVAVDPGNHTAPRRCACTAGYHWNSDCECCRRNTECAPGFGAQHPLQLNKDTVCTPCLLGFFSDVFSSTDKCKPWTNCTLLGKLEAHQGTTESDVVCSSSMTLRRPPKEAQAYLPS
Method: as §2

[6] = target: T1, DR4 (TRAIL-R1) Fc, recombinant receptor …; test: SPR (Biacore 3000, 25 C): ligand at 2 ug/ml injected over receptor amine-coupled to a CM5 chip
Method: as §1

T1 sequence (O00220 24-239 limits assumed): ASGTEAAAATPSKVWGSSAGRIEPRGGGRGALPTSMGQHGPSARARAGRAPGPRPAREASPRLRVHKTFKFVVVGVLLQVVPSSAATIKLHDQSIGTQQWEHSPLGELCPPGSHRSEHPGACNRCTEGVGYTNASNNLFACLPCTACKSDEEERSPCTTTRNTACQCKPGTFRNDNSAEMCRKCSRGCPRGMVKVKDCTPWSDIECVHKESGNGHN

B1: TRAIL mutant C1 (M1 + M3: E194I, I196S, S225A) (ligand)
chain: VRERGPQRVAAHITGTRGRSNTLSSPNSKNEKALGRKINSWESSRSGHSFLSNLHLRNGELVIHEKGFYYIYSQTYFRFQIESKENTKNDKQMVQYIYKYTSYPDPILLMKAARNSCWSKDAEYGLYSIYQGGIFELKENDRIFVSVTNEHLIDMDHEASFFGAFLVG
notes: Combination of M1 and M3 on soluble TRAIL 114-281
binding result [1]: binds

B2: TRAIL mutant D218F (ligand)
chain: VRERGPQRVAAHITGTRGRSNTLSSPNSKNEKALGRKINSWESSRSGHSFLSNLHLRNGELVIHEKGFYYIYSQTYFRFQEEIKENTKNDKQMVQYIYKYTSYPFPILLMKSARNSCWSKDAEYGLYSIYQGGIFELKENDRIFVSVTNEHLIDMDHEASFFGAFLVG
binding result [2]: binds

B4: TRAIL mutant R191ED267R (ligand)
chain: VRERGPQRVAAHITGTRGRSNTLSSPNSKNEKALGRKINSWESSRSGHSFLSNLHLRNGELVIHEKGFYYIYSQTYFEFQEEIKENTKNDKQMVQYIYKYTSYPDPILLMKSARNSCWSKDAEYGLYSIYQGGIFELKENDRIFVSVTNEHLIRMDHEASFFGAFLVG
binding result [5]: no binding (tested: 60 nM)

B5: TRAIL mutant G131R (ligand)
chain: VRERGPQRVAAHITGTRRRSNTLSSPNSKNEKALGRKINSWESSRSGHSFLSNLHLRNGELVIHEKGFYYIYSQTYFRFQEEIKENTKNDKQMVQYIYKYTSYPDPILLMKSARNSCWSKDAEYGLYSIYQGGIFELKENDRIFVSVTNEHLIDMDHEASFFGAFLVG
binding result [2]: binds
binding result (murine RANK (receptor)): no binding

B6: TRAIL mutant D269HE195R (ligand)
chain: VRERGPQRVAAHITGTRGRSNTLSSPNSKNEKALGRKINSWESSRSGHSFLSNLHLRNGELVIHEKGFYYIYSQTYFRFQERIKENTKNDKQMVQYIYKYTSYPDPILLMKSARNSCWSKDAEYGLYSIYQGGIFELKENDRIFVSVTNEHLIDMHHEASFFGAFLVG
fold improvement in binding relative to wild-type TRAIL [3]: > 10 fold
fold reduction in binding relative to wild-type TRAIL [4]: > 15 fold

B8: TRAIL mutant D218R (ligand)
chain: VRERGPQRVAAHITGTRGRSNTLSSPNSKNEKALGRKINSWESSRSGHSFLSNLHLRNGELVIHEKGFYYIYSQTYFRFQEEIKENTKNDKQMVQYIYKYTSYPRPILLMKSARNSCWSKDAEYGLYSIYQGGIFELKENDRIFVSVTNEHLIDMDHEASFFGAFLVG
binding result [2]: binds
binding result (murine RANK (receptor)): no binding

B10: TRAIL mutant D269HT214R (ligand)
chain: VRERGPQRVAAHITGTRGRSNTLSSPNSKNEKALGRKINSWESSRSGHSFLSNLHLRNGELVIHEKGFYYIYSQTYFRFQEEIKENTKNDKQMVQYIYKYRSYPDPILLMKSARNSCWSKDAEYGLYSIYQGGIFELKENDRIFVSVTNEHLIDMHHEASFFGAFLVG
notes: also called T214R-D269H
binding result [5]: no binding (tested: 60 nM)

B11: TRAIL mutant M2 (D203I, Q205M, Y237F) (ligand)
chain: VRERGPQRVAAHITGTRGRSNTLSSPNSKNEKALGRKINSWESSRSGHSFLSNLHLRNGELVIHEKGFYYIYSQTYFRFQEEIKENTKNIKMMVQYIYKYTSYPDPILLMKSARNSCWSKDAEFGLYSIYQGGIFELKENDRIFVSVTNEHLIDMDHEASFFGAFLVG
notes: Stability mutant built on soluble TRAIL 114-281
binding result [6]: binds

B12: TRAIL mutant D269R (ligand)
chain: VRERGPQRVAAHITGTRGRSNTLSSPNSKNEKALGRKINSWESSRSGHSFLSNLHLRNGELVIHEKGFYYIYSQTYFRFQEEIKENTKNDKQMVQYIYKYTSYPDPILLMKSARNSCWSKDAEYGLYSIYQGGIFELKENDRIFVSVTNEHLIDMRHEASFFGAFLVG
fold improvement in binding relative to wild-type TRAIL [3]: > 10 fold
fold reduction in binding relative to wild-type TRAIL [4]: > 15 fold

B13: TRAIL mutant M1 (E194I, I196S) (ligand)
chain: VRERGPQRVAAHITGTRGRSNTLSSPNSKNEKALGRKINSWESSRSGHSFLSNLHLRNGELVIHEKGFYYIYSQTYFRFQIESKENTKNDKQMVQYIYKYTSYPDPILLMKSARNSCWSKDAEYGLYSIYQGGIFELKENDRIFVSVTNEHLIDMDHEASFFGAFLVG
notes: as for B11
binding result [6]: binds

B16: TRAIL mutant G160K (ligand)
chain: VRERGPQRVAAHITGTRGRSNTLSSPNSKNEKALGRKINSWESSRSKHSFLSNLHLRNGELVIHEKGFYYIYSQTYFRFQEEIKENTKNDKQMVQYIYKYTSYPDPILLMKSARNSCWSKDAEYGLYSIYQGGIFELKENDRIFVSVTNEHLIDMDHEASFFGAFLVG
binding result [2]: binds
binding result (murine RANK (receptor)): no binding

B18: TRAIL mutant I220M (ligand)
chain: VRERGPQRVAAHITGTRGRSNTLSSPNSKNEKALGRKINSWESSRSGHSFLSNLHLRNGELVIHEKGFYYIYSQTYFRFQEEIKENTKNDKQMVQYIYKYTSYPDPMLLMKSARNSCWSKDAEYGLYSIYQGGIFELKENDRIFVSVTNEHLIDMDHEASFFGAFLVG
binding result [2]: binds

B19: TRAIL mutant E155M (ligand)
chain: VRERGPQRVAAHITGTRGRSNTLSSPNSKNEKALGRKINSWMSSRSGHSFLSNLHLRNGELVIHEKGFYYIYSQTYFRFQEEIKENTKNDKQMVQYIYKYTSYPDPILLMKSARNSCWSKDAEYGLYSIYQGGIFELKENDRIFVSVTNEHLIDMDHEASFFGAFLVG
binding result [2]: binds

Next, values leading:

fold improvement in binding relative to wild-type TRAIL [3]: > 10 fold
fold reduction in binding relative to wild-type TRAIL [4]: > 15 fold
B3: TRAIL mutant D269K (ligand)
chain: VRERGPQRVAAHITGTRGRSNTLSSPNSKNEKALGRKINSWESSRSGHSFLSNLHLRNGELVIHEKGFYYIYSQTYFRFQEEIKENTKNDKQMVQYIYKYTSYPDPILLMKSARNSCWSKDAEYGLYSIYQGGIFELKENDRIFVSVTNEHLIDMKHEASFFGAFLVG

binding result [2]: binds
binding result (murine RANK (receptor)): no binding
B7: TRAIL mutant D218Y (ligand)
chain: VRERGPQRVAAHITGTRGRSNTLSSPNSKNEKALGRKINSWESSRSGHSFLSNLHLRNGELVIHEKGFYYIYSQTYFRFQEEIKENTKNDKQMVQYIYKYTSYPYPILLMKSARNSCWSKDAEYGLYSIYQGGIFELKENDRIFVSVTNEHLIDMDHEASFFGAFLVG

binding result [2]: binds
B9: TRAIL mutant I220H (ligand)
chain: VRERGPQRVAAHITGTRGRSNTLSSPNSKNEKALGRKINSWESSRSGHSFLSNLHLRNGELVIHEKGFYYIYSQTYFRFQEEIKENTKNDKQMVQYIYKYTSYPDPHLLMKSARNSCWSKDAEYGLYSIYQGGIFELKENDRIFVSVTNEHLIDMDHEASFFGAFLVG

binding result [2]: binds
B14: TRAIL mutant R149D (ligand)
chain: VRERGPQRVAAHITGTRGRSNTLSSPNSKNEKALGDKINSWESSRSGHSFLSNLHLRNGELVIHEKGFYYIYSQTYFRFQEEIKENTKNDKQMVQYIYKYTSYPDPILLMKSARNSCWSKDAEYGLYSIYQGGIFELKENDRIFVSVTNEHLIDMDHEASFFGAFLVG

binding result [2]: binds
binding result (murine RANK (receptor)): no binding
B15: TRAIL mutant R130E (ligand)
chain: VRERGPQRVAAHITGTEGRSNTLSSPNSKNEKALGRKINSWESSRSGHSFLSNLHLRNGELVIHEKGFYYIYSQTYFRFQEEIKENTKNDKQMVQYIYKYTSYPDPILLMKSARNSCWSKDAEYGLYSIYQGGIFELKENDRIFVSVTNEHLIDMDHEASFFGAFLVG

binding result [2]: binds
B17: TRAIL mutant R149H (ligand)
chain: VRERGPQRVAAHITGTRGRSNTLSSPNSKNEKALGHKINSWESSRSGHSFLSNLHLRNGELVIHEKGFYYIYSQTYFRFQEEIKENTKNDKQMVQYIYKYTSYPDPILLMKSARNSCWSKDAEYGLYSIYQGGIFELKENDRIFVSVTNEHLIDMDHEASFFGAFLVG
